Data published in the supplement of paper PMC10567573.
± gives the standard deviation.

Experiment: protein stability index of a GFP-peptide fusion (GPS, HEK-293T) (PSI 1-6); higher = more stable
[1] = treatment: DMSO, c terminus: a fixed tail appended
[2] = treatment: MLN4924 1 uM, 8 h, c terminus: a fixed tail appended
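Note: 24-mer peptide tiles fused after GFP, lentivirally expressed, FACS-sorted into six equal bins by GFP/DsRed ratio, decoded by Illumina sequencing, PSI is the read-weighted mean bin number.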

Sequence	protein stability index [1]	protein stability index [2]	protein stability index (treatment: DMSO, c terminus: native)	protein stability index (treatment: MLN4924 1 uM, 8 h, c terminus: native)
YGVASCEACKAFFKRTIQGSIEYS [ESRRA]	2.34 ± 0.22	2.52 ± 0.072		
PVCADLQAKILQCYRENTHQTLKC [CHCHD3]	3.02 ± 0.23	3 ± 0.25		
IIKKVAEVALDKGCSQFRLAVLDW [SAT2]	2.77 ± 0.4	2.82 ± 0.6		
MCRLEELGLAGRCLTLTPRPATEA [HDAC6]	2.21 ± 0.22	2.27 ± 0.095		
LPESGLLSVLQIAQQDLAPDPDAW [FANCE]	4.06 ± 0.19	4.01 ± 0.22		
RRTRPRHHHGRSRPDRSSQGGSLP [CHGB]	4.93 ± 0.36	5.07 ± 0.23		
PMVTSPREEQQLLASTSKPVVKLL [KCTD13]	4.26 ± 0.32	4.25 ± 0.11		
NKRAALQALKRKKRFEKQLTQIDG [CHMP4C]	3.95 ± 0.42	3.9 ± 0.34		
RLLRDSEAFCHANCSGPAPAAKPD [P3H4]	4.01 ± 0.35	4.01 ± 0.47		
GIPWEAGARQISYSIPEELEKGSF [PCDHGA10]	4.24 ± 0.059	3.87 ± 0.34		
QLRNVRERLAKNLVEKGVLTTEKQ [GOLPH3]	3.68 ± 0.34	3.84 ± 0.17		
TNVKFLAITTDCLQILAYGNQESK [CTNNB1]	2 ± 0.2	2.17 ± 0.16		
LQSSKNSYSFQNPSSFDPSMLLQR [RNF180]	2.9 ± 0.27	3.3 ± 0.17		
QAAKQIKDGVTMAPAFRLSLKAKV [FSD1]	3 ± 0.23	3.02 ± 0.33		
VAPLADGKVAVGQDDLTVVLNEEG [VPS39]	5.46 ± 0.18	5.59 ± 0.17		
AFELLGKNTFEFLKENNFQPYPLP [CLK3]	2.51 ± 0.33	2.65 ± 0.086		
LLSKYCGYREDNIPQLEDVSNFLK [TPH1]	2.41 ± 0.59	2.61 ± 0.57		
KHERTHEIIPINVNNNYEHRHTSH [SPRY1]	3.68 ± 0.37	3.91 ± 0.34		
SQELPPPDPGPSPEASHLRFRRFR [ZNF263]	4.76 ± 0.21	5.14 ± 0.12		
AGEAHMAADGETNGSCENSDASSH [EHMT1]	5.55 ± 0.36	5.69 ± 0.15		
LGCNRQSWCLKRYDLEYWAFHDGQ [TRIM14]	2.5 ± 0.34	2.34 ± 0.38		
HHAQTSKTERINALELLGATFVDK [FEM1C]	3.83 ± 0.12	3.86 ± 0.31		
LQQQPLCTSVNTIYDNAVQGLRRH [LRRC59]	3.66 ± 0.091	3.83 ± 0.13		

Sequence	protein stability index [1]	protein stability index [2]	protein stability index (treatment: DMSO, c terminus: native)	protein stability index (treatment: MLN4924 1 uM, 8 h, c terminus: native)
HVTHWMGQPFNSDDRNTACHHGLV [DLC1]	2.51 ± 0.28	2.92 ± 0.31		
SPDSPKGSSETETEPPVALAPGPA [ESRRA]	5.56 ± 0.31	5.63 ± 0.12		
LVLNSQQSDTLEQREEHELVHVME [RAD54B]	4.59 ± 0.24	4.36 ± 0.21		
ANAVISVSGINHDVTSGDHGDYFR [CPN1]	3.58 ± 0.13	3.48 ± 0.31		
YQTEQSLRQLVESDINSLRRILDE [KRT33B]	3.44 ± 0.16	3.61 ± 0.3		
ARASEGSDSGSDKSLEGGGTAFDA [SMG5]	5.48 ± 0.3	5.37 ± 0.45		
ILELYNIDSHLLLSVLPQLEFKLK [PDS5B]	2.64 ± 0.53	2.45 ± 0.78		
ELQIELLRETKRKYESVLQLGRAL [ARFIP2]	2.54 ± 0.12	2.55 ± 0.23		
SKFRRKDREDSPERCSDSDEEKKA [CLINT1]	5.43 ± 0.27	5.47 ± 0.14		
KQKVMTHVSNGCQLLLGVKGHAF [JUNB]			2.16 ± 0.21	2.23 ± 0.21
SCIGNKQKAVKSCLVCQASFCELH [TRIM29]	3.51 ± 0.16	3.79 ± 0.34		
LALLPAAWEDSHGSQDGHFVLSCS [SCNN1D]	2.92 ± 0.083	2.9 ± 0.34		
DTTELSSAERYNPRTNQWSPVVAM [KLHL20]	3.5 ± 0.17	3.7 ± 0.19		
LRCKLAAFYRLADLFGWSQLIYNH [ADD1]	2.89 ± 0.49	2.78 ± 0.37		
YPAMTFYSPAVMNYSIPSNVTNLE [ESR2]	2.63 ± 0.61	2.93 ± 0.25		
YFFKRPYPFVLFYSKFHGLEMCVD [KMT2E]	2.75 ± 1	3.19 ± 0.55		
NLRKQLETLSGDRVRLDSELRNVQ [KRT71]	3.69 ± 0.08	3.74 ± 0.15		
LAAGSAVFDAMFNGGMATTSAEIE [BTBD1]	3.72 ± 0.35	3.75 ± 0.29		
HFERRDNMNDNFLEGEEENELTLN [CHGB]	5.53 ± 0.06	5.61 ± 0.21		
KYPGPQAEGDSEGLSQGLVDREKG [CHGA]	5.32 ± 0.3	5.36 ± 0.12		
KHMFERSFTQGEGARPLSTRVPRA [MATN2]	4.07 ± 0.18	3.85 ± 0.35		
VRWLRPVHRQLGEANEEFALRVQQ [AUP1]	3.1 ± 0.25	3.02 ± 0.19		
GIRQITSDDFCTFQMVLEGGVCCT [GFOD1]	2.18 ± 0.21	2.22 ± 0.4		

Sequence	protein stability index [1]	protein stability index [2]	protein stability index (treatment: DMSO, c terminus: native)	protein stability index (treatment: MLN4924 1 uM, 8 h, c terminus: native)
MSFTTRSTFSTNYRSLGSVQAPSY [KRT18]	2.37 ± 0.29	2.38 ± 0.3		
AGFQDIPKRCLKAREHFGTVKTHL [TSN]	2.81 ± 0.44	2.78 ± 0.24		
LAFLDKIKSVKESLQESVEDSLAT [IQUB]	4.03 ± 0.45	3.77 ± 0.69		
MCQRLRSMQYNGSYFDRGAKGGSR [DFFB]	3.26 ± 0.26	3.48 ± 0.42		
MPSGSEEKILRELSEEEEDEEEEE [KCNA4]	5.53 ± 0.59	5.69 ± 0.14		
SGKELKIDIIPNPQERTLTLVDTG [HSP90AB1]	3.98 ± 0.42	3.58 ± 0.48		
DKRNYPSLELDKMAHGYGEESEEE [CHGB]	5.63 ± 0.37	5.66 ± 0.19		
QQLDLRWNNVGLLGGRALMNCLPS [LRRC45]	2.65 ± 0.2	2.48 ± 0.2		
ETFSTLKNWVKELRQHGPPNIVVA [RAB22A]	2.4 ± 0.69	2.36 ± 0.14		
FLTLEKFTIHNYSHSRERPYKCVQ [PLAGL1]	2.68 ± 0.26	2.13 ± 0.24		
PGIDIREDLAQKLNLEEDRIQIWF [HESX1]	2.55 ± 0.56	2.43 ± 0.41		
RDNDHPDHSSRELSKILAKLERLK [FUT8]	2.39 ± 0.25	2.27 ± 0.24		
ASFDVCESVDEAGGSGPAGLRAST [RHOBTB2]	5.24 ± 0.21	5.02 ± 0.15		
KKEDCLKLLLFLSTELQASQILQN [FAM98B]	3.41 ± 1.1			
AYDLSSVIASGSSVGHNNLIPLAN [CARM1]	3.23 ± 0.4	3.09 ± 0.28		
TPDTRHPCSLGSSLVADYSDSESE [YJU2B]	5.39 ± 0.23	5.59 ± 0.25		
KIINTKKLSARDHQKLEREARICR [CAMK2B]	3.45 ± 0.29	3.88 ± 0.24		
RQLPPPPTPANEERRGGLPPLPLH [WAS]	4.53 ± 0.22	4.52 ± 0.14		
CRLKRCVDIGMMKEFILTDEEVQR [VDR]	2.49 ± 0.28	2.53 ± 0.13		
KYAVPALEAHCVEFLTKHLRADNA [BTBD1]	2.54 ± 0.25	2.74 ± 0.17		
KLFESVECYDPRTQQWTAICPLKE [GAN]	2.5 ± 0.38	2.82 ± 0.13		
LLVGGLPPGPDRLPSNLVQYYDDE [KLHL14]	4.17 ± 0.25	4.04 ± 0.087		
TAYNKGRLQSSFWIVDKQHVYIGS [PLD5]	2.49 ± 0.45	2 ± 0.27		

Sequence	protein stability index [1]	protein stability index [2]	protein stability index (treatment: DMSO, c terminus: native)	protein stability index (treatment: MLN4924 1 uM, 8 h, c terminus: native)
ALLDLHFPSDHLGDLGDPFHLGLE [TFE3]	2.37 ± 0.36	2.32 ± 0.28		
TEPPQNPVTPLGLQNEVPPQPDPV [SERTAD3]	5.32 ± 0.26	5.48 ± 0.24		
GKEDSTLQLLREENRALQQLLEQK [CBY2]	4.81 ± 0.23	4.84 ± 0.38		
DPDEVARRWGKRKNKPKMNYEKLS [ETS1]	4.51 ± 0.24	4.22 ± 0.35		
LDYYKTGIIRCPDGISIPELREAC [BTBD10]	2.42 ± 0.34	2.5 ± 0.38		
HVGDFARDLAARWKKLVLVDRNTR [ELOA2]	2.39 ± 0.29	2.86 ± 0.34		
KTLALARTMDIPRSVQNFRFFASS [ALDH8A1]	2.58 ± 0.26	2.6 ± 0.3		
VNPWIIIGGVATVVCQPNEFIMPD [SEPHS2]	2.67 ± 0.38	3.05 ± 0.81		
LEEDLKEVLRSEAGIELIIEDDIR [MYBL2]	4.66 ± 0.35	4.68 ± 0.39		
AAAHYTGDKASPDQNASTHTPQSS [CLINT1]	5.52 ± 0.25	5.524 ± 0.042		
SGETWNPLKLHYQLRNVRERLAKN [GOLPH3]	2.87 ± 0.54	3.03 ± 0.21		
LGPPLVRKRIHDSRVAGFNPALQL [TOR1AIP2]	3.07 ± 0.28	3.03 ± 0.26		
SFFYPVLFVLFMFFGMAFNFIVND [SOAT1]	2 ± 0.2	1.96 ± 0.32		
PLTSVCYPQDLPRPLRSREFPQFE [TRAF3IP2]	3.75 ± 0.27	3.62 ± 0.4		
DVQSMPKTGILILILSIIFIEGYC [MAGEA10]	2.86 ± 0.97	2.88 ± 1.2		
LITKNHSQEETSILRCWKCRKCIA [RNF180]	2.48 ± 0.44	2.98 ± 0.58		
RHQRTHTGEKPYQCNICGKCFSCN [ZNF263]	4.08 ± 0.43	4.37 ± 0.3		
GRDRNLAPDEKRSNVRWDHESVCK [LUC7L3]	4.61 ± 0.41	4.55 ± 0.2		
QRRSRQNPQSPPQDSSVTSKRNIK [HDAC6]	5.26 ± 0.51	5.27 ± 0.31		
GYVPSNYVERKNSLKKGSLVKNLK [NCK2]	3.96 ± 0.16	3.89 ± 0.19		
